# From US10465005B2, “JAML specific binding agents, antibodies, and uses related thereto” (Emory University, priority 2011, dated 2019)
# T1: CHO-JAML-His and CHO JAML-6xMyc (Homo sapiens, UniProt Q86YT9)
# T1 construct: 6xMyc (cell line CHO JAML-6xMyc); expressed in transfected cells
# T1 sequence (Q86YT9 20-394): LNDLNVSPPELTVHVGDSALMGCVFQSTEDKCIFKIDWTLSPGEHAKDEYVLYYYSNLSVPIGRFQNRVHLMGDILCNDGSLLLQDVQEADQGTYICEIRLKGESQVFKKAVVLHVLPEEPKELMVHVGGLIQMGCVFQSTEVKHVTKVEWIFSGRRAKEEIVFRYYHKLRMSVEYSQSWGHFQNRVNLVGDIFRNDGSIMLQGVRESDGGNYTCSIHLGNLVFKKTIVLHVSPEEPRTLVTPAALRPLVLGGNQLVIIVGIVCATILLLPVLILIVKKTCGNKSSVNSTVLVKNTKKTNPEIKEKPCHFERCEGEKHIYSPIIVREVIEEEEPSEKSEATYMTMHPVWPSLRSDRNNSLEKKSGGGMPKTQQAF
# T2: CAR binding to JAML on CHO cells (Homo sapiens, UniProt Q86YT9)
# T2 construct: expressed in transfected cells
# T2 sequence (Q86YT9 20-394): T1 sequence (Q86YT9 20-394)
# T3: epithelial CAR on T84 monolayers (Homo sapiens, UniProt P78310)
# T3 construct: endogenous in cells; host or cells: T84
# T3 sequence (P78310 20-365): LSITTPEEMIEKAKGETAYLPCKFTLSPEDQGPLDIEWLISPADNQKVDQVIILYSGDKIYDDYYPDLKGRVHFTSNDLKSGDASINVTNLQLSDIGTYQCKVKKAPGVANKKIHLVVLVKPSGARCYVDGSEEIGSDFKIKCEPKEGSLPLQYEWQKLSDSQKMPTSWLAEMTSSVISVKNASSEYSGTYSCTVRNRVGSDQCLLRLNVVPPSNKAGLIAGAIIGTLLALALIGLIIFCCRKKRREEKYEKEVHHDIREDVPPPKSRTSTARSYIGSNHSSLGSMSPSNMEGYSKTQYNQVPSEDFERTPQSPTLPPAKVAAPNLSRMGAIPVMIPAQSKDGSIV
# B1: DW100: monoclonal anti-human JAML antibody (IgG1,κ), hybridoma ATCC PTA-13051; VH SEQ ID NO:19, VL SEQ ID NO:22 (antibody, V domains shown)
# VH: DVQLVESGAELVRPGASKLSCKALAYTFTDYEMHWVKQTPVHGLEWIGIIHPGSGGTVYNQKFKGKATLTADKSSSTAYMELSSLTSEDSTVYYCTRRRYYGSSYNWYFDVWGAGN
# VL: VLTQSPASLAASVGETVTITCRASENIYYSLAWYQQKQGKSPQLLIYNANSLEDGVPSRFSGSGSGTQYSLKINSMQPEDTATYFCEQTYDVPLTFGAGTKLEL
# B2: sJAML: recombinant soluble fragment of JAML.D1D2 tagged with 10 His residues at the C-terminus (protein)
# chain: LNDLNVSPPELTVHVGDSALMGCVFQSTEDKCIFKIDWTLSPGEHAKDEYVLYYYSNLSVPIGRFQNRVHLMGDILCNDGSLLLQDVQEADQGTYICEIRLKGESQVFKKAVVLHVLPEEPKELMVHVGGLIQMGCVFQSTEVKHVTKVEWIFSGRRAKEEIVFRYYHKLRMSVEYSQSWGHFQNRVNLVGDIFRNDGSIMLQGVRESDGGNYTCSIHLGNLVFKKTIVLHVSPEEPRTL
# Assays:
# [1] = target: T1, CHO-JAML-His and CHO JAML-6xMyc; assay: FACS staining of stably transfected CHO-JAML cell lines; assay type: binding; settings: FIG. 1A
# Source text: BALB/c mice were immunized with recombinant soluble fragment of JAML.D1D2 tagged with 10 His residues at the C-terminus (sJAML-His), generated in H293T cells and purified by Nickel chromatography. After the 4th boost, mice were given a final immunization and, 3 days later, spleen cells harvested and fused to the myeloma cell line P3U1. Hybridomas were selected in HAT medium and supernatants of clones were subjected to screening first to immobilized, soluble JAML and followed by staining of CHO-JAML stable transfectants. Three hybridomas were selected and antibodies were purified from ascites. FACS staining profiles of mAbs using two different, stably transfected CHO-JAML cell lines, CHO-JAML-His and CHO JAML-6xMyc, both membrane bound and tagged at the C-terminus with either 10-His or 6xMyc. Control antibody is 9E10 anti Myc.
# These hybridomas were further tested for reactivity against tagged, full-length JAML expressed on the surface of cultured cells. CHO-JAML-6XMyc transfectants were aliquoted and pelleted into round bottom 96 well plates. 100 μl hybridoma supernatants were added for 1 hr at 4° C. Cells were washed and positive wells were identified by FACS analysis using Goat anti Mouse-AlexaFluor 488. Cells from positive wells were cloned by limiting dilution at one cell per well and expanded first in DMEM-10% FBS containing HAT then in medium containing HT (ATCC) and later DMEM, 10% FBS. The cloned cells of interest were sent to Harlan Laboratories (Indianapolis, Ind.) for production of ascites. Antibodies were purified from ascitic fluid using proteinA-Sepharose (GE Healthcare) followed by dialysis against PBS. Aliquots were frozen at −80° C. Ig subclass of each antibody was determined by using the IsoStrip Mouse Monoclonal Antibody Isotyping Kit (Roche Applied Science). […]
# Cells suspensions of adherent cells were prepared by trypsinization with Trypsin-EDTA (Sigma). […] After final washes, cells were analyzed using FACS Calibur. […] All samples were stained for JAML (DW100 mAb) and CD11b/CD18 (CBRM 1/29), and only CD11b/CD18 positive cells (PMNs) were analyzed for JAML expression.
# [2] = target: T2, CAR binding to JAML on CHO cells; assay: CAR-GST binding to CHO-JAML by flow cytometry; assay type: cell-based; settings: CAR-GST 20 μg/ml, mAbs 30 μg/ml, FIG. 7C
# Description: FIG. 7C. CHO-K1 cells stably expressing JAML (CHO-JAML) were incubated with CAR-GST alone (20 μg/ml, left panel) or in the presence of DW216 and DW100 mAbs (30 μg/ml, right panel) as described for sJAML and the binding was measured by flow cytometry.
# (§1) As it has been established that epithelial CAR is the ligand for JAML on PMN. Whether shed JAML, as well as the recombinant protein could bind to CAR was investigated. To do this, CHO cells stably expressing CAR protein (CHO-CAR) were incubated with either supernatants from PMA activated differentiated PLB-985 (that release high levels of soluble JAML upon activation, (FIG. 2)), or recombinant soluble JAML and stained with DW216 to detect bound JAML. […] The same observation was verified by IF (FIG. 7B). […] The calcium depletion disrupts intercellular junctions of the epithelium and allows for better penetration of soluble JAML.
# [3] = target: T3, epithelial CAR on T84 monolayers; assay: Soluble JAML binding to epithelial CAR, immunofluorescence; assay type: cell-based; settings: sJAML 20 μg/ml, 1 h at 37° C. after 20 min Ca2+ free buffer; FIG. 7D
# Description: FIG. 7D. T84 monolayers were subjected to transient calcium depletion by preincubation in Ca^2+ free buffer (PBS) for 20 min to increase access to tight junctions, were incubated with sJAML (20 μg/ml) for 1 h at 37° C. […] The scale bar is 20 μm.
# as §1
Molecule,FACS staining of CHO-JAML transfectant lines [1],prevention of CAR-GST binding to CHO-JAML [2],JAML labeling versus CAR staining on T84 monolayers [3]
B1,stained both transfectant lines equally well,blocked by DW100,
B2,,,highly colocalizes with staining of CAR
